The values that follow are results of earlier work, collected in publication PMC7556843.

Series [1] deals with linear tetraubiquitin (Ub4) (Homo sapiens) (UniProt P0CG47).
The target of series [2] is linear diubiquitin (Ub2) (Homo sapiens) (UniProt P0CG47).

NEMO 242-419, sequence (Q9Y6K9 242-419): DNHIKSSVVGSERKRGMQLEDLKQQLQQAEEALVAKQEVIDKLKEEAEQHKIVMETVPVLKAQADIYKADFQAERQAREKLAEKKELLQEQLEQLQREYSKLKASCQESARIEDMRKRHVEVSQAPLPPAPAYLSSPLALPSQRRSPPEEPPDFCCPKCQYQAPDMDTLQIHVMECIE

For the substance NEMO 242-419 (from UniProt Q9Y6K9), the Kd (in general, the free concentration of one partner at which half of the binding sites on the other are occupied at equilibrium, for simple one-to-one binding) in series [1] is 300 nM; in series [2] it was 3000 nM.
